Measurements: the DeepSol protein solubility set

Assay: soluble on expression in E. coli; label from the status in PepcDB or PDB records

Row | Sequence | soluble on expression in E. coli
1 | MSLRAVRLHAKWDPRPEFKLGPKDIEGKLTWLGSKVWRYPEVRVEEVPEPRIEKPTEIIIKVKACGICGSDVHMAQTDEEGYILYPGLTGFPVTLGHEFSGVVVEAGPEAINRRTNKRFEIGEPVCAEEMLWCGHCRPCAEGFPNHCENLNELGFNVDGAFAEYVKVDAKYAWSLRELEGVYEGDRLFLAGSLVEPTSVAYNAVIVRGGGIRPGDNVVILGGGPIGLAAVAILKHAGASKVILSEPSEVRRNLAKELGADHVIDPTKENFVEAVLDYTNGLGAKLFLEATGVPQLVWPQIEEVIWRARGINATVAIVARADAKIPLTGEVFQVRRAQIVGSQGHSGHGTFPRVISLMASGMDMTKIISKTVSMEEIPEYIKRLQTDKSLVKVTMLNEGHHHHHH | soluble
2 | MGSDKIHHHHHHMISMKIQQILPADPAKAILIGRIWDPVSQGPRVVSVRGEDVFDLSPGVRTVAELMEYENPLEVVLQRTDAPRWDLAEIVEASQGTDRNRPHLLAPIDLQVVKACGVTFVESMIERVIEERCGGDFTRAAEVRKAVADVLGGSLDSVRPGSEQAREAKRILSAQGMWSQYLEVGLGPDPEVFTKAPVLSSVGYGSGVGIPSFSSWNNPEPELVLILNSAGDPLGATLGNDVNLRDVEGRSALLLGMAKDNNASCAIGPLIRLFHKDFTLESLRTEEITLTVEGTDGYRMEGRNSVARISRSFEELIKAAHGSHHQYPDGFALFTGTLFAPTQDRDTEGLGFTHKNGDIVTISSPQLGTLINQTQSTEETEPWTFGITALFRYLAQTGTGGAPSITGSPVSAAPGKSAGMKIGFRN | not soluble
3 | MTDIISQNENKDDFEDGELPEDGEICDDEDESVKAVPSKSSESAPGAHIAPAHPEKTSGRDSRERVRRFEGNSPPRERDPDPFGSHNDAPDGNDYFGGDKDYRSGAAASSEEEPFSDTDYRVNRRRRLSPSHDDGDFDPRSKRPYYGGRGGFRGGFRNGAKPRFQTEHQICKFFREGYCRDGDNCLYSHQAEDSLRRPVLCNFYANSFCKKGLQCLMLHGEFPCKSFHKGQCNHDPCRFSHVPLTDYTRPIIEKILADEEARQAHQAQQAQTYRQNPVANAAAAAAAAQVMPRRRVLLPGGPNMNGSSPPHATPVIHAPIPQASHPSQLPPPAVVVPTIQRNPGPGIPIHQQYPVAPAAGGYFNQGPRPEQVQGLPPPRTIEPPRLSTQTPPIMHQQQPQLMRPMHPVPIQHPHLQQPGLVQPPQIVSQERHTASPQGFNLEAMLNKMANGEKLISSPRNNVVDDSPASPPPSNYSSMFGSSNRVAVIPQTVQVTWGLVRVQRRLPYSNVENPDRIAANDPRRAKAIAKQFDAFSSLLGAGGNAVSDPRLRAQKEKNDRQQNTMPFSSWMPQIS | not soluble
4 | SLHIDVNNALNRAELVHSALFHEVDAIDSFCADWAEWDDTYNFVLNRNMDYVESNLVDETFPTLNVNYIVYLDRNGEVVLAKGYDLENETAMNPSQPLIERFRELSARNDLDVKKGFLRFDNSIYAFSARPILRSDETGPYAGTLIFARIVDDSFIQSPSKIAGLSFKILPVPKEKSVKFVNESALLVEFPLEDYSGRVVGTIEFYAEREALG | soluble
5 | MSLSQIISSNDVDFQAYMAEAEPQAKVLAAEAWRDDLVRTVEHGDQITGAKLPWSKTHDLLRFRPGEVTLWQGINGHGKSELLGQACIGFATQGERVCIASFEMKPQATLKRMLRQTAMNARPGVQAVDRLIDWSRDRLWLYDQQGTVTPAMLYAVIRYCADRLKVRHMVIDSLMKCVRGEDDYNGQKDFVDMLCTLARDLRMHIHLVHHAKKGENEDQVPGKFSAKGSGAIVDQVDQMLTVWRNKKKERIAEAELRKDGEVSADTHDSPDTLLICDKNRHGEWEGRIQLWRHADSLQFTGDKRRQPLDMIGALAEGHHHHHH | soluble
6 | MLESVHQASAYTADVQPADVVIVGAGAAGLAAAHHLTRAGLTTAVLEAAPNVGGRMSTEKVDGFRLDRMGQLLSTAYPELRSTPGLDALPLREFSPGVLVHSDGHLHRVGEPGTPRSARGALTAARALASAPRQQRTPRAPRTQGASRPGLLGSPVGQSRLAGALARLAATPPDRLLSRPELPAARALSALGLPPRTIDGFLRPLLAALLCDPALETSSRCADLALRAFVTGRLCVPEGGADVLPELLAATLPPGTVHTGVRVTAVSTTSVTTKDHGELRCRAVLLATGARAAARLLPGLRVPGFHPVTVLHHTTDEPPLGDPALVLDAERGGPVAHTAVISRVDPSRAPAGRALVSSTVLGTPPPPDRLEAAVRAQLARLYRTSTARWELLAIHHDSEAVPAMPPPHDPRRPVRLLAGLYICGDHRDTSTVQGALRSGRRAAHALLTDVGAGQTSLEEPLETAALEHHHHHH | not soluble
